Measured values published in patent publication US20240117035A1.

What was measured:
Jurkat (human) = Jurkat (human) (UniProt P07766); test: FACS binding, Jurkat cells; conditions: bispecific antibody
SNU620 (human) = SNU620 (human) (UniProt P56856); test: FACS binding, SNU620 cells; conditions: bispecific antibody

Sequence of Jurkat (human) (P07766 23-207): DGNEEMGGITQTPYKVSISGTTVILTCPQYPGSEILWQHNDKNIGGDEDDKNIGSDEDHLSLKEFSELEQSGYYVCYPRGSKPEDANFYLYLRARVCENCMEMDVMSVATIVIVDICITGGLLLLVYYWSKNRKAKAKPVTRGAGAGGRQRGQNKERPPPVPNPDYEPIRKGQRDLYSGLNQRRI

EC50 (Jurkat (human)): 0.00055 µM | EC50 (SNU620 (human)): 0.0878 µM
Substance: AMG-910
